# Assay: soluble on expression in E. coli; label from the status in PepcDB or PDB records
row,Sequence,soluble on expression in E. coli
1,MSYAKEMLDAIEAGQMETAKQLFTQVLAHDDDETQYNLAEELYALGFNGQAKRLYQGLLGRYPDQGDLATALADIAVSDGDTDAALNYLSRIQPGDPAYVQSLVSAADVYQTLGLYEVSEQKLLEAKRLAPDEPVVTFALGEFYFDWGHFAEAISAYNELLAAGTTELAGVNIEARLAASLAQTGQYEDAVAAYEDVGVDALDLNGRFELGGLYLQLDDPAKAITNLQAVIDSDPSYANAYLPLARAYEAQNQPDKALDTVQAGVMVDDTNPTLYALGGKLALSEDNVKLAETYLQKALAIDPEDQGNMLAWSNFLVQEERDQENVDFLDQIDRSGDVDPQIYWNMAKSYDRLENIKKARENYLLAFNRFQDSPDFLHDIIDFFQSTGARAELKAALVRYLKLVPTDDEMQARLDELNAETDLEHHHHHH,soluble
2,MSYGDGLSGAEYLASIYGTEKDKVNCSFFFKTGACRHGDKCSRAHHTPTFSPTVVLKNFYHNPVVDVRQADAFDKVGKRNDQEQRYFDDFYEEVFVEMERKYGEVEEINVCENIGEHMVGNVYVKFMKEEDAEKAKNDLNNRWFNGQPIYAELCPVTDFRESRCRQHEVTTCSKGGFCNFMHLKAISAELGDRLYGRRGRRADAAGHYPSQRGGSGGGGGGGGGGGYGSGGGWGGGGGGRDRDRGGWGGGGGGRGYGGGGGGGGYGYGGGGGGRRRSRSRDRRRY,not soluble
3,MSYNNSYDVIILAGGLSKRFGADKCCFEVNSKTMLDRLLEQFDNPIVVSRSPRRIKKGILVIEKGEYEGPVKGVREGLKYVRRDRVFITGCDFPFLIKNLVDYVCSKPYDIVIPFDHRPQPLLACYSTELLNKNIDKINGLVELIELSSSVYFIGTEELLKIDPFLYSLININSIIDLIYRPIRIKTKSNFILRLEHHHHHH,not soluble
4,MSYQFTELKEELIIKKIVSLHYFEYMSDFTFPGESHNFWEFLYVDKGELQVTADREKFILRQGQIIFHRPNEFHALAANNVIAPNLVVISFEAGEPCMAFFEHKILTVGESERNLLSQIIAEARETFDGPMDDPYMEVLSRRESIPFGAEQMIKIHLEQFLIQLFRNFSGTLAFGENHKLNGAHAPGKSPALADGNELFSDILDYLDRNIGKSLTVEKICRDNLIGVSQLKKLFRTYQGSGVMECFNQMKINAAKQMIRNQQMNFTQIADALGYTSVHYFSRQFKKLTDMTPTEYRASIMLRAKRPQRKHL,not soluble
5,MSYSPSLKEIIAILQKYTSKNYQSNCKTRPDGKLELSLNGVFEEIVKTPGKTRYVTHKQLDQKLKDFKQDLMVELHDTFATKTDLKESEARINQKLEALIQIVMVQGEQIKVHGEQINKLTQAVEKQGEKIEAQGQQIQKVNETLNFVVESLGSIHKRLDSMEGRLDSMENRLDKLESKLEHHHHHH,not soluble
6,MSYYHHHHHHDYDIPTTGNLYFQGAMVAISFRPTADLVDDIGPDVRSCDLQFRQFGGRSQFAGPISTVRCFQDNALLKSVLSQPSAGGVLVIDGAGSLHTALVGDVIAELARSTGWTGLIVHGAVRDAAALRGIDIGIKALGTNPRKSTKTGAGERDVEITLGGVTFVPGDIAYSDDDGIIVV,soluble
7,MSYYHHHHHHLESTSLYKKAGSENLYFQGARDQGADEAREYEPGQPGMYELEFPAPQLSSSDGRGPVLVHALEGFSDAGHAIRLAAAHLKAALDTELVASFAIDELLDYRSRRPLMTFKTDHFTHSDDPELSLYALRDSIGTPFLLLAGLEPDLKWERFITAVRLLAERLGVRQTIGLGTVPMAVPHTRPITMTAHSNNRELISDFQPSISEIQVPGSASNLLEYRMAQHGHEVVGFTVHVPHYLTQTDYPAAAQALLEQVAKTGSLQLPLAVLAEAAAEVQAKIDEQVQASAEVAQVVAALERQYDAFIDAQENRSLLTRDEDLPSGDELGAEFERFLAQQAEKKSDDDP,soluble
8,MTAALPDLSFHPAWHAQLELAYARAGDATRPVTRRHAGPLRVQKHLYAEGPEVCQHILVHPPGGIAGGDSLAFDVRLGERAWAQLTSPGAAKWYRAACPARQTLEIHLEPGATLEWLPQESIVFAGAQAELETRIQLRGDARLFYWDMVALGRPASGERFASGHFVAALDIRRDDRLLWHERQRIDGGDRLLDSPIGLAGHPVLATLVASGEIDTDLLQRCRALPCAGRGNLSQLPGGLLVARCLADEALHARAWLIELWRLLRPALLGREAVPPRIWSTLEHHHHHH,not soluble
9,MTADSCNPCLTLENTIDVQEVPMTKSVVLADPRGFCAGVDRAILTVQTILKAAEASGKRTREDGLPPVYVRRQIVHNKHVVEDLAGQGAVFVQELAEIPDAAAQAGIPVVFSAHGVSPVVKAEAERRGMHVVDATCPLVGKVHREVLRFVREGYEIVYIGHKGHDEAVGVVGESPEHVHLIEHESDVDSLDFAPDTKLVLLSQTTLSVDETADTIAALKAKFPWIQEPPSSDICYATSNRQAAVKLVAQQSDCVVIVGSANSSNSVRLMEVAQEGLGERGKAYRVDDASELDPAWFEGLESVGISSGASVPDELVSGVIDALQNLGFTGMKSVETIKENMHFVLPAELRRKKLEHHHHHH,soluble
10,MTAETNYFWLNCGYNRWNHNEPLVGQTALFESGAHFNPSQGFRAFKKAKVGDQVIFYQVQTDTGLLGCGEIISVETGAQNKIRVQFRFNEQLKPLTADYLKRSEALEFRMSNMKETLFNQITAEEFDLISGLGKGEIKIPRYFFLAETEEFEPGNQYTIYTHTYNGIKRNGYHFYTQLEEGDNIIFYNRTKNQSVVGIGEVSKHIHEKPPIPGRTNSTVIEVSYEKDITPITLSTLNKHPKLKNLYFLQENAKQAIASMSQAQYDAIIEMSDNNGLKSPFEMVKKPDMLESEKEEALKPFILLVVDRKEEGLKAANDLLQKANANPVITTGHPDFSEDMLYGKYLPNETGALYYREGFITQLMPKKDKSYLVIDNFNRIDTDIFQTYINVLEGYEVTLPRYNKDGNMIKWSRQKDSFYYFNPNWHIVGITYDSLEEIKEKYSEQFLKYTRIVKVKHD,not soluble
11,MTCLSRDWATAQRLVEWALASTRCECFNVDSNFMAGLCLVENPTKQHYSFEVRKQVVDRFNAGQSKMDLAREFGLSSDQLVSSWVRAWRAGGDEALRPKPKGRPKGSASSKPLTEEDRLRREVEKLRAENAYLKKLRDLRNQRRSLEHHHHHH,soluble
12,MTDARTTVVVITHNRCAEVLRTLDRLAELPERPAVIVTDNGSTDGTAAAVARHHPGVRLLRSGRNLGAVGRNLAVRQVTTPYVAFCDDDSWWAPGSLSGAADLLDRYPAVGSVTARILVEPEGTEDPIVEELRDSPVPRPDWLPGPALGSFLAAATVLRTDAFRAAGGFHPRLWLGGEEELLAADLAANGWWLTYAGQLTIHHHPSGVRDSTVRRSHGIRNTLWFTWLRRPVGPALRRTLHLARTVPRDTASLRAFAEATAALPWVLRERRVLPPEVEARLRALEPAQRDSTARSYTGLEHHHHHH,not soluble
13,MTDFFRFPNTPHLLWLGQGQPRDDKILSDAEIAALLQDEVLIEEKLDGANLGISLDEHGELRAQNRGQYLPQPFSGQFSRLNSWLGQHGEILKHTLTPEMILFGEWCAARHSLDYNKLPDWFLLFDVYDREAGKFWSVERRNQLAQKLNITTVPLLKRTKITCNQLVQLLDDAQSRYRSGKVEGIVIRCDSPLWCESRAKLVNREFVQAIEDHWRSRSIEWNLVHAGSVKRS,not soluble
14,MTDFQKQFFARLHIEEKDTVSFEDLSNIMYAMAQTVPFENLNILEKNFKEISKENLKEKILVNNRGGLCYELNPTMYYFLKDSGFDVHLVSGTVYNAANSIWAVDSGHIATVLTHHNELYLIEVGFGSYLPLAPVPFLGEVIHSATGDYRIRKEMTEKGNYILEMRKNNEFLDQSAADDWTLGYAFYIEEVDEEKANTAQKIIVEHEGSPFNKVPLIVKLTEDGHASLTKDSLTVAKNGKKTKETVTDMQYTNLLHSKFGITL,not soluble
